Source: patent US20080318246A1, “Deeply quenched enzyme sensors” (The Albert Einstein College of Medicine of Yeshiva …, priority 2007, published 2008)

Molecular target: 14-3-3τ (UniProt P27348)
Assay: cell-based or functional assay

Chain of 14-3-3τ (P27348 whole entry): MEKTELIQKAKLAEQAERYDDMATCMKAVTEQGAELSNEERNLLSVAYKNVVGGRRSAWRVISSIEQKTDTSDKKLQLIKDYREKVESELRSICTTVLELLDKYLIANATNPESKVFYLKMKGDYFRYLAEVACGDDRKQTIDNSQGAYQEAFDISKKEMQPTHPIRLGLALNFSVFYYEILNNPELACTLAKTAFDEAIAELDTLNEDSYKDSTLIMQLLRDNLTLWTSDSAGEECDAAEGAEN

P4, Ac-GRDap(Pyr)GRRFSYP-amide, serine-phosphorylated by PKA in the assay (peptide)
% Fluorescence Enhancement on phosphorylation, no quenching dye: 40%
PKA-induced fluorescence change; Alizarin Red 5x: 1.36 fold
PKA-induced fluorescence change; Alizarin Red 10x: 1.33 fold
PKA-induced fluorescence change; Alizarin Red 25x: 1.23 fold
PKA-induced fluorescence change; Alizarin Red 50x: 1.07 fold
PKA-induced fluorescence change; Aniline Blue WS 5x: 2.34 fold
PKA-induced fluorescence change; Aniline Blue WS 10x: 4.82 fold
PKA-induced fluorescence change; Aniline Blue WS 25x: 5.58 fold
PKA-induced fluorescence change; Aniline Blue WS 50x: 1.4 fold
PKA-induced fluorescence change; Chlorazol Black E 5x: 4.01 fold
PKA-induced fluorescence change; Chlorazol Black E 10x: 0.93 fold
PKA-induced fluorescence change; Chlorazol Black E 25x: 0.55 fold
PKA-induced fluorescence change; Chlorazol Black E 50x: 0.87 fold
PKA-induced fluorescence change; Eriochrome Black T 5x: 1.32 fold
PKA-induced fluorescence change; Eriochrome Black T 10x: 1.12 fold
PKA-induced fluorescence change; Eriochrome Black T 25x: 0.59 fold
PKA-induced fluorescence change; Eriochrome Black T 50x: 0.59 fold
PKA-induced fluorescence change; Evans Blue 5x: 0.98 fold
PKA-induced fluorescence change; Evans Blue 10x: 0.91 fold
PKA-induced fluorescence change; Evans Blue 25x: 0.89 fold
PKA-induced fluorescence change; Evans Blue 50x: 0.91 fold
PKA-induced fluorescence change; Ponceau S 5x: 2.26 fold
PKA-induced fluorescence change; Ponceau S 10x: 2.63 fold
PKA-induced fluorescence change; Ponceau S 25x: 2.88 fold
PKA-induced fluorescence change; Ponceau S 50x: 2.69 fold
PKA-induced fluorescence change; Reactive Blue 2 5x: 2.16 fold
PKA-induced fluorescence change; Reactive Blue 2 10x: 2.66 fold
PKA-induced fluorescence change; Reactive Blue 2 25x: 3.55 fold
PKA-induced fluorescence change; Reactive Blue 2 50x: 4.27 fold
PKA-induced fluorescence change; Rose Bengal 5x: 6.52 fold
PKA-induced fluorescence change; Rose Bengal 10x: 2.88 fold
PKA-induced fluorescence change; Rose Bengal 25x: 1.1 fold
PKA-induced fluorescence change; Rose Bengal 50x: 0.91 fold
PKA-induced fluorescence change; Tartrazine 5x: 1.28 fold
PKA-induced fluorescence change; Tartrazine 10x: 1.42 fold
PKA-induced fluorescence change; Tartrazine 25x: 1.46 fold
PKA-induced fluorescence change; Tartrazine 50x: 1.47 fold
PKA-induced fluorescence change; Trypan Blue 5x: 3.03 fold
PKA-induced fluorescence change; Trypan Blue 10x: 2.18 fold
PKA-induced fluorescence change; Trypan Blue 25x: 1.72 fold
PKA-induced fluorescence change; Trypan Blue 50x: 2.76 fold

phosphorylated P5 peptide AcDap(Pyr)RTGRRFS(PO3 2-)YP-amide
% Fluorescence Enhancement on phosphorylation, no quenching dye: 64%
PKA-induced fluorescence change; Alizarin Red 5x: 1.7 fold
PKA-induced fluorescence change; Alizarin Red 10x: 1.59 fold
PKA-induced fluorescence change; Alizarin Red 25x: 1.49 fold
PKA-induced fluorescence change; Alizarin Red 50x: 1.5 fold
PKA-induced fluorescence change; Aniline Blue WS 5x: 3.02 fold
PKA-induced fluorescence change; Aniline Blue WS 10x: 5.36 fold
PKA-induced fluorescence change; Aniline Blue WS 25x: 6.04 fold
PKA-induced fluorescence change; Aniline Blue WS 50x: 1.23 fold
PKA-induced fluorescence change; Chlorazol Black E 5x: 5.62 fold
PKA-induced fluorescence change; Chlorazol Black E 10x: 1.52 fold
PKA-induced fluorescence change; Chlorazol Black E 25x: 0.21 fold
PKA-induced fluorescence change; Chlorazol Black E 50x: 0.25 fold
PKA-induced fluorescence change; Eriochrome Black T 5x: 1.61 fold
PKA-induced fluorescence change; Eriochrome Black T 10x: 1.73 fold
PKA-induced fluorescence change; Eriochrome Black T 25x: 0.84 fold
PKA-induced fluorescence change; Eriochrome Black T 50x: 1.12 fold
PKA-induced fluorescence change; Evans Blue 5x: 1.33 fold
PKA-induced fluorescence change; Evans Blue 10x: 0.92 fold
PKA-induced fluorescence change; Evans Blue 25x: 0.84 fold
PKA-induced fluorescence change; Evans Blue 50x: 0.78 fold
PKA-induced fluorescence change; Ponceau S 5x: 2.85 fold
PKA-induced fluorescence change; Ponceau S 10x: 3.3 fold
PKA-induced fluorescence change; Ponceau S 25x: 3.23 fold
PKA-induced fluorescence change; Ponceau S 50x: 4.36 fold
PKA-induced fluorescence change; Reactive Blue 2 5x: 2.28 fold
PKA-induced fluorescence change; Reactive Blue 2 10x: 3.99 fold
PKA-induced fluorescence change; Reactive Blue 2 25x: 6.44 fold
PKA-induced fluorescence change; Reactive Blue 2 50x: 5.79 fold
PKA-induced fluorescence change; Rose Bengal 5x: 8.36 fold
PKA-induced fluorescence change; Rose Bengal 10x: 3.45 fold
PKA-induced fluorescence change; Rose Bengal 25x: 1.02 fold
PKA-induced fluorescence change; Rose Bengal 50x: 0.95 fold
PKA-induced fluorescence change; Tartrazine 5x: 1.43 fold
PKA-induced fluorescence change; Tartrazine 10x: 1.52 fold
PKA-induced fluorescence change; Tartrazine 25x: 1.79 fold
PKA-induced fluorescence change; Tartrazine 50x: 2.05 fold
PKA-induced fluorescence change; Trypan Blue 5x: 6.21 fold
PKA-induced fluorescence change; Trypan Blue 10x: 2.72 fold
PKA-induced fluorescence change; Trypan Blue 25x: 3.61 fold
PKA-induced fluorescence change; Trypan Blue 50x: 3.48 fold
Phosphorylation-induced fluorescence fold-change; P5/Rose Bengal (1:5), plate reader - bottom read: 8 fold
Phosphorylation-induced fluorescence fold-change; P5/Rose Bengal (1:5), plate reader - top read: 30 fold
Phosphorylation-induced fluorescence fold-change; P5/Rose Bengal (1:5), spectrofluorimeter: 64 fold
